Results reported in IntAct's records for PubMed 12897212.

B1: Melanophilin (Homo sapiens), Q9BV36 (parent)
chain: MGKKLDLSKLTDEEAQHVLEVVQRDFDLRRKEEERLEALKGKIKKESSKRELLSDTAHLNETHCARCLQPYQLLVNSKRQCLECGLFTCKSCGRVHPEEQGWICDPCHLARVVKIGSLEWYYEHVKARFKRFGSAKVIRSLHGRLQGGAGPELISEERSGDSDQTDEDGEPGSEAQAQAQPFGSKKKRLLSVHDFDFEGDSDDSTQPQGHSLHLSSVPEARDSPQSLTDESCSEKAAPHKAEGLEEADTGASGCHSHPEEQPTSISPSRHGALAELCPPGGSHRMALGTAAALGSNVIRNEQLPLQYLADVDTSDEESIRAHVMASHHSKRRGRASSESQIFELNKHISAVECLLTYLENTVVPPLAKGLGAGVRTEADVEEEALRRKLEELTSNVSDQETSSEEEEAKDEKAEPNRDKSVGPLPQADPEVGTAAHQTNRQEKSPQDPGDPVQYNRTTDEELSELEDRVAVTASEVQQAESEVSDIESRIAALRAAGLTVKPSGKPRRKSNLPIFLPRVAGKLGKRPEDPNADPSSEAKAMAVPYLLRRKFSNSLKSQGKDDDSFDRKSVYRGSLTQRNPNARKGMASHTFAKPVVAHQS

Variants of: B1
Conditions: with rb27a_human RAB27A

| effect of a mutation on the interaction | Variant |
| --- | --- |
| disrupting interaction | R35K |
| disrupting interaction | R35F |
| disrupting interaction | R35V |

Variants of: B1
Conditions: with rb27a_human RAB27A
Remark: another data set of the same source

| effect of a mutation on the interaction | Variant |
| --- | --- |
| disrupting interaction | R35W |
